Measured values taken from US20250313631A1 (HUMMINGBIRD BIOSCIENCE PTE, published 2025).
Numbering of substitutions follows the chain as printed. Read-outs that look alike come from different tables or passages of the source.

B1: anti-VISTA clone V4-C28 IgG1 (antibody, V domains shown)
VH: QVQLQESGPGLVKPSDTLSLTCTVSGYSITSDYTWNWIRQTPGKGLEWIGHITYSGSVSYNPSLRSRVTISRDTSKNQFSLKLSSVTAADTATYSCARALYYPWYFDVWGTGTTVTVSS
VL: EIVLTQSPATLSLSPGERATLSCRASSSVGYIHWYQQKPGQAPRPLIYATSYRATGIPARFSGSGSGTDNTLTISSLEPEDSAVYYCQQWSSYPPITFGGGTKLEVKR
B2: anti-VISTA clone V4-C31 IgG1 (antibody, V domains shown)
VH: B1 VH
VL: B1 VL with S51Y, A54T
B3: anti-VISTA clone V4-C30 IgG1 (antibody, V domains shown)
VH: B1 VH
VL: B1 VL with S51Y

How the values were obtained:
[1] = molecular target: T1, recombinant rat VISTA (His-tagged) (rat, UniProt A0ABK0L5H3 33-192); assay: ELISA, plate coated with rat VISTA
T1 sequence: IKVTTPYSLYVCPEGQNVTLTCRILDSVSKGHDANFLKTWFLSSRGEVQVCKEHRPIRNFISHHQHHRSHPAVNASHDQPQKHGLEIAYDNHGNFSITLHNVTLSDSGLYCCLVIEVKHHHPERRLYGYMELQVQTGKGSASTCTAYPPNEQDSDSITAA

[2] = molecular target: T2, recombinant cynomolgus macaque VISTA (His-tagged) (cynomolgus macaque, UniProt A0A7N9IB00 33-194); assay: ELISA, plate coated with cyno VISTA
T2 construct: also called cyno VISTA; cynomolgus monkey VISTA

[3] = molecular target: T3, recombinant human VISTA (His-tagged) (human, UniProt Q9H7M9 33-194); assay: ELISA, plate coated with human VISTA
T3 construct: bought soluble protein (Sino Biological); also called hVISTA; human VISTA polypeptide

[4] = molecular target: T4, human PD-1 (human, UniProt Q15116 25-167); assay: ELISA, plate coated with the antigen
T4 sequence (Q15116 25-167 limits assumed): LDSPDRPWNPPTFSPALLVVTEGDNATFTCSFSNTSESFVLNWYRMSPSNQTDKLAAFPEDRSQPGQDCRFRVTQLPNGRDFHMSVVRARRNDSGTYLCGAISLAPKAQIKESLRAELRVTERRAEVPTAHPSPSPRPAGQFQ

[5] = molecular target: T5, human B7H3 (human, UniProt Q5ZPR3 29-461, limits assumed); assay: ELISA, plate coated with the antigen
T5 construct: also called CD276
T5 sequence (looked up): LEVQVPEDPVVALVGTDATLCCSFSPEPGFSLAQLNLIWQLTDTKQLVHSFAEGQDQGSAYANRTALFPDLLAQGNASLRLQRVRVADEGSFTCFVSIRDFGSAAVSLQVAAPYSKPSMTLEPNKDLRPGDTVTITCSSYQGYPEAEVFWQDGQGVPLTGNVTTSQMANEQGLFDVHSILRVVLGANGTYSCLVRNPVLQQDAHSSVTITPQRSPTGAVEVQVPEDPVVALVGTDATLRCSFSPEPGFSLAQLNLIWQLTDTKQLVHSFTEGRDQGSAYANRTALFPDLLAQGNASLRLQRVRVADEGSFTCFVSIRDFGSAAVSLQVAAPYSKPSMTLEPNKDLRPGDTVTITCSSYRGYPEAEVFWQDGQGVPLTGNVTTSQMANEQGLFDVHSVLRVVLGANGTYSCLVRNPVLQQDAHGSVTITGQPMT

[6] = molecular target: T6, human B7H4 (human, UniProt Q7Z7D3 25-258, limits assumed); assay: ELISA, plate coated with the antigen
T6 construct: also called VTCN1
T6 sequence (looked up): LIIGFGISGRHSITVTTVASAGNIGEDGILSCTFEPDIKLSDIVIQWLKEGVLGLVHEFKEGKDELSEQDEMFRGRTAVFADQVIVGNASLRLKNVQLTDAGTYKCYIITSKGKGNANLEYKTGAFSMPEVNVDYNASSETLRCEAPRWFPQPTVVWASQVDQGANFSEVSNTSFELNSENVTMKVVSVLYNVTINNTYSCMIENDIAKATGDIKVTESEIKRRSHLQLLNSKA

[7] = molecular target: T7, human B7H6 (human, UniProt Q68D85 25-262); assay: ELISA, plate coated with the antigen
T7 construct: also called NCR3LG1
T7 sequence (looked up): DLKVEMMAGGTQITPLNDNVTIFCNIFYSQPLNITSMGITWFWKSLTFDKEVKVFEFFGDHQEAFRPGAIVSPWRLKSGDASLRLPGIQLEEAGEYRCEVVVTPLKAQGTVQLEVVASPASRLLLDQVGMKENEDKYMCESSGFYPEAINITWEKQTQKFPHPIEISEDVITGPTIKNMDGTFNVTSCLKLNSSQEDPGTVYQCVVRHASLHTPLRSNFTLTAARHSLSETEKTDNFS

[8] = molecular target: T8, human B7H7 (human, UniProt Q9UM44 23-344); assay: ELISA, plate coated with the antigen
T8 construct: also called HHLA2
T8 sequence (looked up): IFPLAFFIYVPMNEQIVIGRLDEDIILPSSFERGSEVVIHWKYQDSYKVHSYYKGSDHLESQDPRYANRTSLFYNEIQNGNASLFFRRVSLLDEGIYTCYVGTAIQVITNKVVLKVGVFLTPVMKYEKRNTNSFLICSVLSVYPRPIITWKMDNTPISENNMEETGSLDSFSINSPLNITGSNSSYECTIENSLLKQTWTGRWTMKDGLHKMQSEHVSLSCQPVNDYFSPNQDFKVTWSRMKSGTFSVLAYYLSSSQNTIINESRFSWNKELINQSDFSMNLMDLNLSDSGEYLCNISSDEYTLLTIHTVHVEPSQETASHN

[9] = molecular target: T9, human CTLA4 (human, UniProt P16410 36-162); assay: ELISA, plate coated with the antigen
T9 sequence (P16410 36-162 limits assumed): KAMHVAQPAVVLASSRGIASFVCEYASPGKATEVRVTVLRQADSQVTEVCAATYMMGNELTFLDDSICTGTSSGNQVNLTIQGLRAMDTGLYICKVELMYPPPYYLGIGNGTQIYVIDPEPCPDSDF

[10] = molecular target: T3, recombinant human VISTA (His-tagged); assay: ELISA, plate coated with human VISTA; remark: listed apart in the source
[11] = molecular target: T10, recombinant mouse VISTA (His-tagged) (mouse, UniProt Q9D659 33-191); assay: ELISA, plate coated with mouse VISTA
T10 construct: also called murine VISTA; mVISTA
T10 sequence (looked up): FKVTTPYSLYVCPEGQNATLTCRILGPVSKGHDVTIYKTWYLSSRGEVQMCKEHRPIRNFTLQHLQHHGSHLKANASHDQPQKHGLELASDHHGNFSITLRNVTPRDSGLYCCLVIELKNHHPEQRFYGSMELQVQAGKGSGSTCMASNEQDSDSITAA

[12] = molecular target: T3, recombinant human VISTA (His-tagged); assay: BLI (Octet), 1:1 global fit, His-tagged human VISTA captured
[13] = molecular target: T10, recombinant mouse VISTA (His-tagged); assay: BLI (Octet), 1:1 global fit, His-tagged mouse VISTA captured
[14] = molecular target: T10, recombinant mouse VISTA (His-tagged); assay: as above; remark: listed apart in the source
[15] = molecular target: T3, recombinant human VISTA (His-tagged); assay: ELISA, plate coated with human VISTA; unit nM from the legend paragraph 697
[16] = molecular target: T10, recombinant mouse VISTA (His-tagged); assay: ELISA, plate coated with mouse VISTA; unit nM from the legend paragraph 697
[17] = molecular target: T3, recombinant human VISTA (His-tagged); assay: ELISA, plate coated with human VISTA; unit nM from the legend paragraph 698
[18] = molecular target: T10, recombinant mouse VISTA (His-tagged); assay: ELISA, plate coated with mouse VISTA; unit nM from the legend paragraph 698
[19] = molecular target: T11, human PD-L1 (human, UniProt Q9NZQ7 19-239); assay: BLI (Octet), His-tagged human PD-L1 on anti-Penta-HIS biosensor, antibody 500-15.6 nM
T11 construct: captured through a His tag in the BLI experiments; also called hPD-L1; B7H1/PDL-1
T11 sequence (Q9NZQ7 19-239 limits assumed): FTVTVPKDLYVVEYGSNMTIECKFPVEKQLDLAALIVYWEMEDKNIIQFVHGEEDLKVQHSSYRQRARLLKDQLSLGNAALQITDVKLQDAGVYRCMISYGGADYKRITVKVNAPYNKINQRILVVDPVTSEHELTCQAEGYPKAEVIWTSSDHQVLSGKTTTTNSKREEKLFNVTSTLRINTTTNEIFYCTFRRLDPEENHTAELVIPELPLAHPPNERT
Method: Finally, the biosensors were incubated for 120 sec in PBS pH 7.2 to obtain the dissociation curves. Kinetic and affinity constants were calculated by global fitting of the association and dissociation data to a 1:1 binding model.

[20] = molecular target: T3, recombinant human VISTA (His-tagged); assay: ELISA, plate coated with human VISTA; remark: listed apart in the source
[21] = molecular target: T4, human PD-1; assay: ELISA, plate coated with the antigen; remark: listed apart in the source
[22] = molecular target: T5, human B7H3; assay: ELISA, plate coated with the antigen; remark: listed apart in the source
[23] = molecular target: T6, human B7H4; assay: ELISA, plate coated with the antigen; remark: listed apart in the source
[24] = molecular target: T7, human B7H6; assay: ELISA, plate coated with the antigen; remark: listed apart in the source
[25] = molecular target: T8, human B7H7; assay: ELISA, plate coated with the antigen; remark: listed apart in the source
[26] = molecular target: T9, human CTLA4; assay: ELISA, plate coated with the antigen; remark: listed apart in the source
[27] = molecular target: T3, recombinant human VISTA (His-tagged); assay: ELISA, plate coated with human VISTA; remark: listed apart in the source
[28] = molecular target: T4, human PD-1; assay: ELISA, plate coated with the antigen; remark: listed apart in the source
[29] = molecular target: T5, human B7H3; assay: ELISA, plate coated with the antigen; remark: listed apart in the source
[30] = molecular target: T6, human B7H4; assay: ELISA, plate coated with the antigen; remark: listed apart in the source
[31] = molecular target: T7, human B7H6; assay: ELISA, plate coated with the antigen; remark: listed apart in the source
[32] = molecular target: T8, human B7H7; assay: ELISA, plate coated with the antigen; remark: listed apart in the source
[33] = molecular target: T9, human CTLA4; assay: ELISA, plate coated with the antigen; remark: listed apart in the source

Binder	EC50 [1] [nM]	EC50 [2] [nM]	EC50 [10] [nM]	EC50 [11] [nM]	Kd [12] [nM]	koff [12] [s⁻¹]	kon [12] [M⁻¹ s⁻¹]	Kd [13] [nM]	koff [13] [s⁻¹]	kon [13] [M⁻¹ s⁻¹]	Kd [14] [nM]	koff [14] [s⁻¹]	kon [14] [M⁻¹ s⁻¹]	EC50 [15] [nM]	EC50 [16] [nM]	EC50 [17] [nM]	EC50 [18] [nM]	binding result [19]	other results
B1	0.217	0.0367	0.0346	0.0365	< 0.001	< 1e-07	507000	0.17	8.2e-05	475000	0.489	0.00025	520000	0.0015	0.0045	0.053	0.064	no binding (tested: 500 nM)	EC50 (read off the curve) [3]: ~0.03 nM; binding result [4]: no binding (tested: log -7.5 M); binding result [5]: no binding (tested: log -7.5 M); binding result [6]: no binding (tested: log -7.5 M); binding result [7]: no binding (tested: log -7.5 M); binding result [8]: no binding (tested: log -7.5 M); binding result [9]: no binding (tested: log -7.5 M)
B2	0.224	0.0321	0.0408	0.04	< 0.001	< 1e-07	623000	< 0.001	< 1e-07	570000	< 0.001	< 1e-07	344000	0.0032	0.003	0.02	0.028	no binding (tested: 500 nM)	EC50 (read off the curve) [20]: ~0.02 nM; binding result [21]: no binding (tested: log -7.5 M); binding result [22]: no binding (tested: log -7.5 M); binding result [23]: no binding (tested: log -7.5 M); binding result [24]: no binding (tested: log -7.5 M); binding result [25]: no binding (tested: log -7.5 M); binding result [26]: no binding (tested: log -7.5 M)
B3	0.206	0.0272	0.0318	0.0326	< 0.001	< 1e-07	593000	0.005	2.8e-06	505000	< 0.001	< 1e-07	533000	< 0.0007	0.0013	0.088	0.123	no binding (tested: 500 nM)	EC50 (read off the curve) [27]: ~0.02 nM; binding result [28]: no binding (tested: log -7.5 M); binding result [29]: no binding (tested: log -7.5 M); binding result [30]: no binding (tested: log -7.5 M); binding result [31]: no binding (tested: log -7.5 M); binding result [32]: no binding (tested: log -7.5 M); binding result [33]: no binding (tested: log -7.5 M)
